T1: DLL3 endogenously expressed on SHP77 cells (human, UniProt Q9NYJ7 27-618)
T1 construct: whole, on cells; also called human DLL3 on SHP-77
T1 sequence (looked up): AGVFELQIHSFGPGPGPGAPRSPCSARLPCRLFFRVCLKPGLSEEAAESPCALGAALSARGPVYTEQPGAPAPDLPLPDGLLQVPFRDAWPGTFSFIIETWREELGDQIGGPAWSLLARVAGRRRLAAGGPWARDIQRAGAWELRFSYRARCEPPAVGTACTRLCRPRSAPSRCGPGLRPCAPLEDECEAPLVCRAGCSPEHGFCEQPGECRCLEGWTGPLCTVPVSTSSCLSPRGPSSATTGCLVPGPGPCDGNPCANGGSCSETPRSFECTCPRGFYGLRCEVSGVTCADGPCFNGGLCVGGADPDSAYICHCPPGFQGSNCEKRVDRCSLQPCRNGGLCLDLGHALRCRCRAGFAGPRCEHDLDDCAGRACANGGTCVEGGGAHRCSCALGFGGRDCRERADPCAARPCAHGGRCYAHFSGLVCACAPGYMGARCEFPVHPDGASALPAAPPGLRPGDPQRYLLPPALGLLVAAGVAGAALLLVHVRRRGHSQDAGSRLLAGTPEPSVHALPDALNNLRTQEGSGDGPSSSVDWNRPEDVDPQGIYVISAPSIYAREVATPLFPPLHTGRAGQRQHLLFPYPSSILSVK

B1: DLL3-scFv-3 (scFv)
scFv: DIVLTQSPASLAVSLGQRATISCRASKSVSTSGFSYMHWYQQKPGQPPKLLIYLASNLESGVPARFSGSGSGTDFTLNIHPVEEEDAATYYCQHSRELPFTFGSGTKLEIKGGGGSGGGGSGGGGSQVQLQQSGAELVKPGASVRISCKASGYAFSNYWINWVKQRPGKGLEWIGQINPGDGDTIYNGKFKGKATLTADKSSSTAYMQLSSLTSEDSAVYFCEREGRNYGDFAYWGQGTTLTVSS
notes: Murine anti-DLL3 clone; also called DLL3 chimeric antibody DLL3-scFv-3
B2: DLL3-scFv-1 (scFv)
scFv: DIVMTQSQKFMSTSVGDRVSITCKASQNVGTAVAWYQQKPGQSPKLLIFSASIRYTGVPDRFTGSGSGTDFTLTISNMQSEDLADYFCQQYSSSPYTFGGGTKLEIKGGGGSGGGGSGGGGSEVQLQQSGPVLVKPGASVKMSCKASGYTFTDYYMNWVKRSHGKSLEWIGIINPYNGGTSYNQKFRGKATLTVDKSSNTAYMELNSLTSEDSAVYYCSRYDYDYDVEGAMDYWGQGTSVTVSS
notes: Murine anti-DLL3 clone; also called DLL3 chimeric antibody DLL3-scFv-1
B3: DLL3-scFv-2 (scFv)
scFv: DIVMTQSPATLSVTPGDRVSLSCRASQTISDYLHWYQQRSHESPRLLIKYASQSISGIPSRFSGSGSGSDFTLSINSVEPEDVGVYYCQNGHSFPLTFGAGTKLELKGGGGSGGGGSGGGGSEVQLQQSGTVLARPGASVKMSCKTSGYTFTSYWMHWVKQSPGQGLEWIGTIYPGNSDTRYNQKFKDKAYVTAVTSASTAYMELSSLTNEESAVYYCTRSYDYGDLDYWGQGTTLTVSS
notes: Murine anti-DLL3 clone; also called DLL3 chimeric antibody DLL3-scFv-2

The binders below were run against T1, DLL3 endogenously expressed on SHP77 … (assay: flow cytometry (FACS) on SHP77 cells).

Binding result, binds:
B1
B2
B3

Reference: patent publication EP4796562A1 (Shanghai Simnova Biotechnology Co., Ltd., dated 2026)
